Measurements from patent publication US20040126856A1, “Factor ixa: factor Vllla interaction and methods therefor” (priority 2004, published 2004).

Legend:
factor X = biological target: T1, factor X (Homo sapiens, UniProt P00742); test: Activation of factor X by factor IXa proteins in the presence of only Ca2+ and PL (absence of factor VIIIa); assay type: biochemical; conditions: 20 nM factor IXa; for kcat: 5 mM CaCl2, absence of factor VIIIa; for Km: 5 mM CaCl2, factor X 25 nM to 3 μM, absence of factor VIIIa
T1 construct: Normal plasma factor IX (IXNP) and factor X was isolated as previously described; from tissue; host or cells: normal plasma
Description: Activation of Factor X by Each Factor IXa Protein in the Presence of Only Ca^2+ and PL.
For these studies, each factor IX was activated with factor XIa/Ca^2+ as described above. For factor X activation studies, the concentration of factor IXa was kept at 20 nM and the buffer used was TBS/BSA (TBS with […] BSA) containing 5 mM CaCl2. The concentrations of PL used were 10, 25, 50, and 100 μM in different sets of experiments. The concentration of factor X at each PL concentration ranged from 25 nM to 3 μM. The activations were carried out for 5-15 min and the amount of factor Xa generated was measured by hydrolysis of S-2222 as described previously (Mather and Bajaj, 1999; Mather et al., 1997). The Km and kcat values were obtained using the program GraFit from Erithacus Software.

[1] = biological target: T2, A2 subunit of factor VIIIa (Homo sapiens, UniProt P00451); test: EC50 (functional Kd) of interaction of factor IXa proteins with A2 subunit, factor Xa generation (S-2222); assay type: biochemical; conditions: 5 nM factor IXa, 250 nM factor X, 25 μM PL, 5 mM CaCl2 (FIG. 1)
T2 construct: cleaved by thrombin at R372-S373, R740-S741, and R1689-S1690 to yield factor VIIIa
T2 sequence (P00451 392-759): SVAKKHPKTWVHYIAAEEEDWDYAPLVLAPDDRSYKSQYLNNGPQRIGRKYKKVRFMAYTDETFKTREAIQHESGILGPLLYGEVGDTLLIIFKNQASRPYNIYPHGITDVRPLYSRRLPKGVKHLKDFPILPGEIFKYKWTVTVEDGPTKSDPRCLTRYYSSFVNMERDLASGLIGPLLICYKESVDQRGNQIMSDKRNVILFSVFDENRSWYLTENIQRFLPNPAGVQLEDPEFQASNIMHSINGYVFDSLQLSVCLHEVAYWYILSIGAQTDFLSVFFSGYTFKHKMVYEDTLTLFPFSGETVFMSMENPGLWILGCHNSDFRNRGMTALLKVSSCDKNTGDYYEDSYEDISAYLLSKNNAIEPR
Description: Determination of EC50 of Interaction of Factor IXa Proteins with A2 Subunit.
The EC50 (functional Kd) of binding of each factor IXa protein with A2 subunit was measured essentially as described previously for its interaction with intact factor VIIIa (Mather and Bajaj, 1999; Mather et al., 1997). For these experiments, concentrations of factor IXa and factor X were kept constant, and the rates of formation of factor Xa were determined at increasing concentrations of A2 subunit. Reaction mixtures contained 5 nM IXa protein, 250 nM factor X, 25 μM PL and various concentrations of A2 subunit in TBS/BSA, pH 7.5 containing 5 mM CaCl2. Reactions were carried out at 37° C. for 5-20 minutes and stopped by adding 1 μL of 500 mM EDTA. The amount of factor Xa generated was determined by S-2222 hydrolysis as described previously (Mather and Bajaj, 1999; Mather et al., 1997). The EC50 was obtained by fitting the data to a single site ligand binding equation (Eq. 1) by non-linear regression analysis using the program GraFit from Erithacus Software. [formula]
Where V is the rate of formation of factor Xa at a given concentration of the A2 subunit, denoted by L, and Vmax is the rate of factor Xa formation by the factor IXa:A2 subunit complex. EC50 is the functional Kd defined as the concentration of free A2 subunit yielding 50% of the Vmax. The background rate of factor Xa generation was obtained by carrying out the reaction in the absence of the A2 subunit.

T1 sequence (P00742 183-488 limits assumed): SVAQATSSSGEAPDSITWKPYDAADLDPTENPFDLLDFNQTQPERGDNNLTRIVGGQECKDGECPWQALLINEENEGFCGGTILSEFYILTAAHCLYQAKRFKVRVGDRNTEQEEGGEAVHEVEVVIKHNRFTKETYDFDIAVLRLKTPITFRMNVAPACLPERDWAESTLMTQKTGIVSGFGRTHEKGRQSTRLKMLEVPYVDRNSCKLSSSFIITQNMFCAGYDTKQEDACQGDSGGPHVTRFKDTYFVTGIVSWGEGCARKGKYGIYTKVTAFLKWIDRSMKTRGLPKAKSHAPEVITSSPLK
T1 sequence (P00742 41-179 limits assumed): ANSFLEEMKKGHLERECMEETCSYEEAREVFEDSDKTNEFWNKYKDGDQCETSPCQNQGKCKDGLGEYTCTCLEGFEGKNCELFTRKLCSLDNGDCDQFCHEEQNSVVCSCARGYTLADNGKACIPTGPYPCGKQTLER

Substance	kcat (factor X; PL 10 μM) [s⁻¹]	Km (factor X; PL 10 μM) [µM]	kcat (factor X; PL 25 μM) [s⁻¹]	Km (factor X; PL 25 μM) [µM]	kcat (factor X; PL 50 μM) [s⁻¹]	Km (factor X; PL 50 μM) [µM]	kcat (factor X; PL 100 μM) [s⁻¹]	Km (factor X; PL 100 μM) [µM]	Ability of the A2 subunit to enhance/potentiate the factor X-activating activity of the IXa protein [1]	EC50 (functional Kd), apparent Kd of interaction with the A2 subunit, single site-binding model [1]	EC50 ([1]; read-out: EC50 (functional Kd), apparent Kd of interaction with the A2 subunit, single site-binding model) [µM]
IXaR333Q: activated factor IX point mutant in which Arg333 is replaced by Gln	0.0002	0.11	0.0003	0.18	0.0005	0.23	0.000667	0.61	severely impaired	could not be calculated	–
IXaWT: activated recombinant wild-type factor IX (IXWT)	0.000167	0.09	0.0002	0.12	0.0004	0.24	0.000633	0.57	–	–	0.257 ± 0.031
